Data set [1] can be described thus: Enzymatic activity comparison: activity remaining after 65° C. for 10 min at pH 6.0, relative to SEQ ID NO: 1. The class given is physicochemical. The method, then:
To compare the temperature behavior and thermostability of selected enzymes to one another, enzyme was incubated at 65° C. for 10 min at pH 6.0. The enzymatic activity remaining after incubation was compared to the remaining activity of the enzyme of SEQ ID NO: 1 after incubation, the latter being set to 100%, see Table 16.

A short description of data set [2]: OTA detoxification activity assay (specific activity, fluorescence reduction ex/em 390/450 nm). The note with it: SEQ ID NO: 1 = 100%. The class given is biochemical. The procedure, abridged:
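Recombinant enzyme preparation with 200 ng/mL OTA in 100 mM sodium phosphate, at pH 6.0 and pH 7.5, 37° C. Degradation followed as the fall in fluorescence at ex/em 390/450 nm. Specific activity taken from the initial linear slope; one unit degrades 1 μmol OTA per min at a starting OTA of […].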

The text below walks through data of US20240352438A1, “MEANS AND METHODS FOR DETOXIFYING OCHRATOXIN A” (DSM Austria GmbH, priority 2021, published 2024).

B1: 127 (protein)
chain: MTTRTRILTAFLSLLAANACAADAAPAAPHTVVLRAARMFDGASGKLVDHPQLTIVGNKIVRIAQGDKAEVPAGAEVVDLGDATLLPGFIDAHVHLSGQSSDNWYGDFFDNMMRFPAEQALYGAYYARITLEAGFTSVRDVGSTDWVALGLRNAIDAGKVPGPRMLVSNYAVGSTGGHADQDPIPPHKLPLAGPLQGVCNGPEECRAAVRYQIKYGANVIKFMPSGGVLSLSDPVDAPELSQDEMNAVIGESHAWGRYVAAHAHGDKAAKMAVAAGVDSIEHGSFIEDDTLRAMKAKNVYLVPTISAIAHVEEKIGTFPPVIAEKGRAAAAHLRQTFRHAVQIGVPIALGTDAGVGAHGSNAREFRYMVENGLTPAQALLAGTANAARLLRTFDRVGTLEAGKLADVVAVPGNPIADITVTERPLFVMKDGVVVRRDAVR
modifications: exemplary polypeptide
In the case of B1, the “Enzymatic activity remaining after incubation, compared to SEQ ID NO: 1 (set to 100%)” value in data set [1] is recorded as 64%. Also, in data set [2], the “Specific OTA detoxification activities in % compared to the enzyme of SEQ ID NO: 1, pH 6.0” value came out at 78% and the “Specific OTA detoxification activities in % compared to the enzyme of SEQ ID NO: 1, pH 7.5” value is reported as 82%.

B2: 143 (protein)
chain: MTTRTRILTAFLSLLAANACAADAAPAAPHTVVLRAARMFDGASGKLVDHPQLTIVGNKIVRIAQGDKAEVPAGAEVVDLGDATLLPGFIDAHVHLSGQSSDNWYGDFFDNMMRFPAEQALYGAYYARITLEAGFTSVRDVGSDDWVALGLRNAIDAGKVPGPRMLVSNYAVGSTGGHADQDPIPPHKLPLAGPLQGVCNGPEECRAAVRYQIKYGANVIKFMPSGGVLSLSDPVDAPELSQDEMNAVIGESHAWGRKVAAHAHGDKAAKMAVAAGVDSIEHGSFIEDDTLRAMKAKNVYLVPTISAIAHVEEKIGTFPPVIAEKGRAAAAHLRQTFRHAVQIGVPIALGTDAGVGAHGSNAREFRYMVENGLTPAQALLAGTANAARLLGTFDRVGTLEAGKLADVVAVPGNPIADITVTERPLFVMKDGVVVRRDAVR
modifications: exemplary polypeptide
As to B2, in data set [1], the “Enzymatic activity remaining after incubation, compared to SEQ ID NO: 1 (set to 100%)” value was found to be 21%. Also, in data set [2], the “Specific OTA detoxification activities in % compared to the enzyme of SEQ ID NO: 1, pH 6.0” value is on record as 86% and the “Specific OTA detoxification activities in % compared to the enzyme of SEQ ID NO: 1, pH 7.5” value worked out at 84%.

B3: 137 (protein)
chain: MTTRTRILTAFLSLLAANACAADAAPAAPHTVVLRAARMFDGASGKLVDHPQLTIVGNKIVRIAQGDKAEVPAGAEVVDLGDATLLPGFIDAHVHLNGQSSDNWYGDFFDNMMRFPAEQALYGAYYARITLEAGFTSVRDVGSTDWVALGLRNAIDAGKVPGPRMLVSNYAVGSTGGHADQDPIPPHKLPLAGPLQGVCNGPEECRAAVRYQIKYGANVIKFMPSGGVLSLSDPVDAPELSQDEMNAVIGESHAWGRKVAAHAHGDKAAKMAVAAGVDSIEHGSFIEDDTLRAMKAKNVYLVPTISAIAHVEEKIGTFPPVIAEKGRAAAAHLRQTFRHAVQIGVPIALGTDAGVGAHGSNAREFRYMVENGLTPAQALLAGTANAARLLGTFDRVGTLEAGKLADVVAVPGNPIADITVTERPLFVMKDGVVVRRDAVR
modifications: exemplary polypeptide
Take B3: in data set [1], the “Enzymatic activity remaining after incubation, compared to SEQ ID NO: 1 (set to 100%)” value was determined as 48%. Further, in data set [2], the “Specific OTA detoxification activities in % compared to the enzyme of SEQ ID NO: 1, pH 6.0” value came to 86% and the “Specific OTA detoxification activities in % compared to the enzyme of SEQ ID NO: 1, pH 7.5” value came out at 93%.

B4: 140 (protein)
chain: MTTRTRILTAFLSLLAANACAADAAPAAPHTVVLRAARMFDGASGKLVDHPQLTIVGNKIVRIAQGDKAEVPAGAEVVDLGDATLLPGFIDAHVHLVGQSSDNWYGDFFDNMMRFPAEQALYGAYYARITLEAGFTSVRDVGSTDWVALGLRNAIDAGKVPGPRMLVSNYAVGSTGGHADQDPIPPHKLPLAGPLQGVCNGPEECRAAVRYQIKYGANVIKFMPSGGVLSLSDPVDAPELSQDEMNAVIGESHAWGRKVAAHAHGDKAAKMAVAAGVDSIEHGSFIEDDTLRAMKAKNVYLVPTISAIAHVEEKIGTFPPVIAEKGRAAAAHLRQTFRHAVQIGVPIALGTDAGVGAHGSNAREFRYMVENGLTPAQALLAGTANAARLLGTFDRVGTLEAGKLADVVAVPGNPIADITVTERPLFVMKDGVVVRRDAVR
modifications: exemplary polypeptide
As to B4, the “Enzymatic activity remaining after incubation, compared to SEQ ID NO: 1 (set to 100%)” value in data set [1] stood at 34%. Moreover, in data set [2], the “Specific OTA detoxification activities in % compared to the enzyme of SEQ ID NO: 1, pH 6.0” value stood at 118% and the “Specific OTA detoxification activities in % compared to the enzyme of SEQ ID NO: 1, pH 7.5” value is reported as 120%.

B5: 128 (protein)
chain: MTTRTRILTAFLSLLAANACAADAAPAAPHTVVLRCARMFDGASGKLVDHPQLTIVGNKIVRIAQGDKAEVPAGAEVVDLGDATCLPGFIDAHVHLSGQSSDNWYGDFFDNMMRFPAEQALYGAYYARITLEAGFTSVRDVGSTDWVALGLRNAIDAGKVPGPRMLVSNYAVGSTGGHADQDPIPPHKLPLAGPLQGVCNGPEECRAAVRYQIKYGANVIKFMPSGGVLSLSDPVDAPELSQDEMNAVIGESHAWGRKVAAHAHGDKAAKMAVAAGVDSIEHGSFIEDDTLRAMKAKNVYLVPTISAIAHVEEKIGTFPPVIAEKGRAAAAHLRQTFRHAVQIGVPIALGTDAGVGAHGSNAREFRYMVENGLTPAQALLAGTANAARLLGTFDRVGTLEAGKLADVVAVPGNPIADITVTERPLFVMKDGVVVRRDAVR
modifications: exemplary polypeptide
For B5, in data set [1], the “Enzymatic activity remaining after incubation, compared to SEQ ID NO: 1 (set to 100%)” value is recorded as 84%. Further, in data set [2], the “Specific OTA detoxification activities in % compared to the enzyme of SEQ ID NO: 1, pH 6.0” value is given as 67% and the “Specific OTA detoxification activities in % compared to the enzyme of SEQ ID NO: 1, pH 7.5” value is recorded as 73%.

B6: 139 (protein)
chain: MTTRTRILTAFLSLLAANACAADAAPAAPHTVVLRAARMFDGASGKLVDHPQLTIVGNKIVRIAQGDKAEVPAGAEVVDLGDATLLPGFIDAHVHLTGQSSDNWYGDFFDNMMRFPAEQALYGAYYARITLEAGFTSVRDVGSTDWVALGLRNAIDAGKVPGPRMLVSNYAVGSTGGHADQDPIPPHKLPLAGPLQGVCNGPEECRAAVRYQIKYGANVIKFMPSGGVLSLSDPVDAPELSQDEMNAVIGESHAWGRKVAAHAHGDKAAKMAVAAGVDSIEHGSFIEDDTLRAMKAKNVYLVPTISAIAHVEEKIGTFPPVIAEKGRAAAAHLRQTFRHAVQIGVPIALGTDAGVGAHGSNAREFRYMVENGLTPAQALLAGTANAARLLGTFDRVGTLEAGKLADVVAVPGNPIADITVTERPLFVMKDGVVVRRDAVR
modifications: exemplary polypeptide
In the case of B6, the “Enzymatic activity remaining after incubation, compared to SEQ ID NO: 1 (set to 100%)” value in data set [1] is on record as 40%. In data set [2], the “Specific OTA detoxification activities in % compared to the enzyme of SEQ ID NO: 1, pH 6.0” value came to 141% and the “Specific OTA detoxification activities in % compared to the enzyme of SEQ ID NO: 1, pH 7.5” value came out at 88%.

B7: 138 (protein)
chain: MTTRTRILTAFLSLLAANACAADAAPAAPHTVVLRAARMFDGASGKLVDHPQLTIVGNKIVRIAQGDKAEVPAGAEVVDLGDATLLPGFIDAHVHLPGQSSDNWYGDFFDNMMRFPAEQALYGAYYARITLEAGFTSVRDVGSTDWVALGLRNAIDAGKVPGPRMLVSNYAVGSTGGHADQDPIPPHKLPLAGPLQGVCNGPEECRAAVRYQIKYGANVIKFMPSGGVLSLSDPVDAPELSQDEMNAVIGESHAWGRKVAAHAHGDKAAKMAVAAGVDSIEHGSFIEDDTLRAMKAKNVYLVPTISAIAHVEEKIGTFPPVIAEKGRAAAAHLRQTFRHAVQIGVPIALGTDAGVGAHGSNAREFRYMVENGLTPAQALLAGTANAARLLGTFDRVGTLEAGKLADVVAVPGNPIADITVTERPLFVMKDGVVVRRDAVR
modifications: exemplary polypeptide
Take B7: the “Enzymatic activity remaining after incubation, compared to SEQ ID NO: 1 (set to 100%)” value in data set [1] worked out at 27%. In data set [2], the “Specific OTA detoxification activities in % compared to the enzyme of SEQ ID NO: 1, pH 6.0” value turned out to be 46% and the “Specific OTA detoxification activities in % compared to the enzyme of SEQ ID NO: 1, pH 7.5” value came out at 29%.

B8: 136 (protein)
chain: MTTRTRILTAFLSLLAANACAADAAPAAPHTVVLRAARMFDGASGKLVDHPQLTIVGNKIVRIAQGDKAEVPAGAEVVDLGDATLLPGFIDAHVHLDGQSSDNWYGDFFDNMMRFPAEQALYGAYYARITLEAGFTSVRDVGSTDWVALGLRNAIDAGKVPGPRMLVSNYAVGSTGGHADQDPIPPHKLPLAGPLQGVCNGPEECRAAVRYQIKYGANVIKFMPSGGVLSLSDPVDAPELSQDEMNAVIGESHAWGRKVAAHAHGDKAAKMAVAAGVDSIEHGSFIEDDTLRAMKAKNVYLVPTISAIAHVEEKIGTFPPVIAEKGRAAAAHLRQTFRHAVQIGVPIALGTDAGVGAHGSNAREFRYMVENGLTPAQALLAGTANAARLLGTFDRVGTLEAGKLADVVAVPGNPIADITVTERPLFVMKDGVVVRRDAVR
modifications: exemplary polypeptide
In the case of B8, the “Enzymatic activity remaining after incubation, compared to SEQ ID NO: 1 (set to 100%)” value in data set [1] is listed as 36%. Besides, in data set [2], the “Specific OTA detoxification activities in % compared to the enzyme of SEQ ID NO: 1, pH 6.0” value was determined as 64% and the “Specific OTA detoxification activities in % compared to the enzyme of SEQ ID NO: 1, pH 7.5” value stood at 48%.

B9: 141 (protein)
chain: MTTRTRILTAFLSLLAANACAADAAPAAPHTVVLRAARMFDGASGKLVDHPQLTIVGNKIVRIAQGDKAEVPAGAEVVDLGDATLLPGFIDAHVHLSGQSSDNWYGDFFDNMMRFPAEQALYGAYYARITLEAGFTSVRDVASTDWVALGLRNAIDAGKVPGPRMLVSNYAVGSTGGHADQDPIPPHKLPLAGPLQGVCNGPEECRAAVRYQIKYGANVIKFMPSGGVLSLSDPVDAPELSQDEMNAVIGESHAWGRKVAAHAHGDKAAKMAVAAGVDSIEHGSFIEDDTLRAMKAKNVYLVPTISAIAHVEEKIGTFPPVIAEKGRAAAAHLRQTFRHAVQIGVPIALGTDAGVGAHGSNAREFRYMVENGLTPAQALLAGTANAARLLGTFDRVGTLEAGKLADVVAVPGNPIADITVTERPLFVMKDGVVVRRDAVR
modifications: exemplary polypeptide
Turning to B9, the “Enzymatic activity remaining after incubation, compared to SEQ ID NO: 1 (set to 100%)” value in data set [1] came to 55%. In data set [2], the “Specific OTA detoxification activities in % compared to the enzyme of SEQ ID NO: 1, pH 6.0” value came to 138% and the “Specific OTA detoxification activities in % compared to the enzyme of SEQ ID NO: 1, pH 7.5” value worked out at 123%.
